Assay results taken from patent US20090175796A1 (AGENSYS, published 2009).
Where a chain is given by its changes, count along the chain named.

Target: T1, 24P4C12 protein (human) (human, UniProt Q53GD3 1-710)
T1 construct: whole, on cells; also called SLC44A4; CTL4
T1 sequence (looked up): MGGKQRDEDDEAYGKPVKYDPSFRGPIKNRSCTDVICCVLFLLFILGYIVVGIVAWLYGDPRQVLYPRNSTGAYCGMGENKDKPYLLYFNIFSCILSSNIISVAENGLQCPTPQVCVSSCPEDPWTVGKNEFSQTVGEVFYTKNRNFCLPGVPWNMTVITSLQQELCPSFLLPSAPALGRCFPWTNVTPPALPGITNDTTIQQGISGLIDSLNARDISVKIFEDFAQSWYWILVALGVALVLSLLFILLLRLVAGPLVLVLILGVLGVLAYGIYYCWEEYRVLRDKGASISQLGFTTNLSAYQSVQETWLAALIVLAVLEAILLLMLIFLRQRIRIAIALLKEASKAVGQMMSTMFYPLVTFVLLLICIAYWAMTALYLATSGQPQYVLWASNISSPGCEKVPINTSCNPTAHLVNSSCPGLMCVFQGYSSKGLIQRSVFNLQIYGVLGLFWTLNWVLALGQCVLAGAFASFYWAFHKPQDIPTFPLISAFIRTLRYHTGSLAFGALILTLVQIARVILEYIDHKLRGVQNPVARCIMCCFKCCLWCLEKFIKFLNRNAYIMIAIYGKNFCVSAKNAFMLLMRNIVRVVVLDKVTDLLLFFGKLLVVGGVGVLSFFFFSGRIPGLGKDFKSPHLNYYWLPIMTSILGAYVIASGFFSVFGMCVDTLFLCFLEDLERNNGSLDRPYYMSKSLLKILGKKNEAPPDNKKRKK
Assay: FACS saturation equilibrium binding on LNCaP cells
Experimental: The affinity to LNCaP cells was determined by FACS using saturation equilibrium binding assay. […] At the end of incubation, the cells were washed with FACS Buffer and incubated with 100 ul of detection antibody (anti-hIgG-PE) for 45 minutes at 4° C., the cells were then washed with FACS Buffer, fixed with 2% Formaldehyde and analyzed using FACScan. FACS data were analyzed using CellQuest Pro software to acquire histogram and Mean Fluoresces Intensity (MFI) values of each point. The MFI values were used to calculate the binding affinity using non-linear regression using Prism4 software (Graphpad Software Inc. San Diego Calif.).

B1: Ha5-3(3,5)37.1 (antibody, V domains shown)
VH: QVQLQESGPGLVKPSETLSLTCTVSGGSISSYYWSWIRQPPGKGLEWIGYIYYSGSTNYNPSLKSRVTISVDTSKNQFSLKLNSVTAADTAVYYCARGYYYGSESPYGMDVWGQGTTVTVSS
VL: DIVMTQSPLSLPVTPGEPASISCRSSQSLLHSNGHNYLDWYLQKPGQSPHLLIYLGSNRDSGVPDRFSGSGSGTDFTLKISRVEAEDVGVYYCMQALQIPCSFGQGTKLEIK
Kd: 0.45 nM

B2: Ha5-7acd2.1 (antibody, V domains shown)
VH: QVQLQESGPGLVKPSETLSLTCTVSGGSISSYYWSWIRQPPGKGLEWIGYIYYSGSTNYNPSLKSRVTISVDTSKNQFSLKLSSVTAADTAVYYCANTYYYGSGYGMDVWGQGTTVTVSS
VL: DIVMTQSPLSLPVTPGEPASISCRSSQSLLHSTGHNYLDWYLQKPGQSPQLLIYLGSIRASGVPDRFSGSGSGTDFTLKISRVEAEDVGVYYCMQALQTITFGQGTRLEIK
Kd: 1.95 nM

B3: Ha5-7acd19.1 (antibody, V domains shown)
VH: B2 VH with Y50F, S54T
VL: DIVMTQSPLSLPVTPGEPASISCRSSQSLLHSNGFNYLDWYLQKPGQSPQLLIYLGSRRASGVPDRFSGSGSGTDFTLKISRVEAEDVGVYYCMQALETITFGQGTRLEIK
modifications: Labelled with Alexa Fluor 488 dye in the FIG. 14 experiment; the site is not stated and the letters do not carry it.
notes: copies: 2 + 2
Kd: 0.19 nM

B4: Ha5-7acd7.1.1 (antibody, V domains shown)
VH: QVQLQESGPGLVKPSETLSLTCTVSGGSVSSGGYYWSWIRQPPGKGLEWIGYIYYSGGTNYNPSLKSRVTISVDTSKNQFSLKLTSVTAADTAVYYCARESGYCTNVACFPDAFDIWGQGTMVTVSS
VL: DVVMTQSPFSLPVTPGEPASISCRSSQSLLHSNGFNFLDWYLQKPGQSPQLLIYLGSIRASGVPDRFSGSGSGTDFTLKISRVEAEDVGVYYCMQALQTPLTFGGGTRVEIK
notes: copies: 2 + 2
Kd: 1.85 nM

B5: Ha5-8ac4.1 (antibody, V domains shown)
VH: QVQLQESGPGLVKPSETLSLTCTVSGGSISRYYWSWIRQPAGKGLERIGRIYTSGSTDYNPSLKSRVTMSVDTSKNQFSLKLRSVTAADTAVYYCARDLYSNGYWYFDLWGRGTLVTVSS
VL: QSVLTQPPSVSGAPGQRVTISCTGSSSNIGAGYDVHWYQQLPGTAPKLLIYGNSNRPSGVPDRFSGSKSGTSASLAITGLQAEDEADYYCQSYDSSLSGVVFGGGTKLTVL
notes: also called Ha5-8acd4.1
Kd: 0.07 nM

B6: Ha5-1(5)1 (antibody, V domains shown)
VH: QVQLVESGGGVVQPGRSLRLSCGASGFTFSSYGMHWVRQAPGKGLEWVAVMSYDGSKKYYTDSVKGRFTISRDNSKNTLYLQMNSLRVEDTAVYYCARDGGDYVRYYYYGMDVWGQGTTVTVSS
VL: DIQMTQSPSSLSASVGDRVTITCRARQGITYHLAWYQQRPGKVPKLLIYDTSSLQSGVPSRFSGSGSGTDFTLTISSLQPEDVATYYCQRFNSAPLTFGGGTKVEIK
notes: also called HA5-1(5)1.1
Kd: 4.1 nM

B7: Ha5-1(5)2.1 (antibody, V domains shown)
VH: B6 VH with G23A, Y59F, V88A, Y107H
VL: DIQMTQSPSTLSASIGDRVTITCRASQGISYYLAWYQQKPGKIPKLLIYDTSSLQSGVPSRFSGSRSGTDLSLTISSLQPEDVATYYCQRYDSAPLTFGGGTKVEIK
Kd: 2.75 nM

B8: Ha5-7acd10.1 (antibody, V domains shown)
VH: QVQLVESGGGVVQPGRSLRLSCAASGFTFSSYGMHWVRQAPGKGLEWVAVIWYDGSNKYYADSVKGRFTISRDNSKNTLYLQMNSLRAEDTAVYYCARDRYSGYDYYYYYGMDVWGQGTTVTVSS
VL: DIQMTQSPSSLSASVGDRVTITCRASQGIYNYLAWFQQKPGKAPKSLIYAASSLHSGVPSKFSGGGSGTDFTLTISSLQPEDFATYYCQQYTIYPFTFGPGTKVDIK
notes: copies: 2 + 2
Kd: 1.26 nM

B9: Ha5-11b1.1 (antibody, V domains shown)
VH: B8 VH with Y32H, R100Q, Y106L
VL: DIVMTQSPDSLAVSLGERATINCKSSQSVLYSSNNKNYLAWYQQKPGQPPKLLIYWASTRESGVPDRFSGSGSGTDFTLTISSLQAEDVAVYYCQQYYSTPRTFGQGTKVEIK
Kd: 3.4 nM

B10: Ha5-3(1,4)7.1 (antibody, V domains shown)
VH: B8 VH with D105G
VL: B8 VL with G28D, Y30S, G65S
modifications: Labelled with Alexa Fluor 488 in the FIG. 14 experiment. The site is not stated and the letters do not carry it.
Kd: 5.5 nM

B11: Ha5-7acd3.1 (antibody, V domains shown)
VH: B8 VH with A61T, Y107F
VL: B8 VL with K45R, G65S
Kd: 4.4 nM

B12: Ha5-7acd20.1.1 (antibody, V domains shown)
VH: B8 VH with S56R, A61V, Y104S
VL: B8 VL with H55Q, G65S, D70V, I93V, I106F
Kd: 1.1 nM

B13: Ha5-7acd4.1 (antibody, V domains shown)
VH: B8 VH
VL: B8 VL with G28V, A50G, G65S, D70E, T97S
Kd: 0.99 nM

B14: Ha5-7acd16.1 (antibody, V domains shown)
VH: B8 VH with Y32H, R100A
VL: B8 VL with N31T, A50G, H55Q, G65S, S76T, T97S
notes: also called HA5-acd16.1; copies: 2 + 2
Kd: 0.7 nM

B15: Ha5-7be20.1 (antibody, V domains shown)
VH: QVQLQESGPGLVKPSETLSLTCTVSGGSISSYYWSWIRQPPGKGLEWIGYIYYSGSTNYNPSLKSRVTISVDTSKNQFSLKLSSVTAADTAVYYCARGYYYGSGSYGLDVWGQGTTVTVSS
VL: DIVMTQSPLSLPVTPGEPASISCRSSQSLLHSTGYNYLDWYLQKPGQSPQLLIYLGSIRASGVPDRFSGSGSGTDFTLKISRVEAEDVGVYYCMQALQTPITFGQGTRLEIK
Kd: 3.2 nM

B16: Ha5-7be31.1 (antibody, V domains shown)
VH: B15 VH with S103A, L108M
VL: B4 VL with V2I, F9L, N33T, F37Y, A85T, A96T, L101I, G105Q, V109L
notes: copies: 2 + 2
Kd: 4.15 nM
